In US20170137467A1 (CHROMOTEK, published 2017):

B1: BC2 nanobody (VHH)
VHH: QVQLVESGGGLVQPGGSLTLSCTASGFTLDHYDIGWFRQAPGKEREGVSCINNSDDDTYYADSVKGRFTIFMDNAKDTVYLQMNSLKPEDTAIYYCAEARGCKRGRYEYDFWGQGTQVTVSS
notes: Alpaca VHH, 122 aa; also called BC2-Nb; BC2 nanotrap (BC2-Nb immobilized on agarose/Sepharose beads); not shown: C-terminal 6xHis-tag added by the pHEN6 vector
B2: BC2 nanobody (BC2-Nb) (VHH)
VHH: B1 VHH
notes: immobilised on agarose/sepharose beads in this assay; also called BC2 nanotrap (immobilised form); not shown: C-terminal 6xHis-tag added by pHEN6 vector

How the values were obtained:
[1] = target: T1, mCherry-Vimentin with C-terminal BC2 tag (mCherry-VIMBC2T) (human, UniProt P08670 1-466); assay: immunoprecipitation from HEK293T lysate, immunoblot with anti-vimentin
T1 construct: Expressed in HEK293T or HeLa cells; also called mCherry-VimentinBC2T; not shown: mCherry fluorescent protein
Protocol: HEK293T cells transiently expressing eGFP, eGFPBC2T or BC2TeGFP, eGFP-PCNA, eGFP-PCNABC2T, mCherry-Vimentin, mCherry-VimentinBC2T were washed and harvested in phosphate buffered saline (PBS), snap-frozen in liquid nitrogen and stored at −20° C. Cell pellets were homogenized in 200 μl lysis buffer (10 mM Tris/Cl pH 7.5, 150 mM NaCl, 0.5% NP40, 1 μg DNaseI, 2 mM MgCl₂, 2 mM PMSF, 1× protease inhibitor mix M (Serva) by repeated pipetting for 40 min on ice. After a centrifugation step (10 min at 18.000×g) the protein concentration of each lysate was determined using a Pierce BCA Protein Assay Kit (Thermo Fisher Scientific) according to manufacturer's protocol and the protein solutions were adjusted with dilution buffer (10 mM Tris/Cl pH 7.5, 150 mM NaCl, 2 mM PMSF) to a concentration of 1 mg/ml. 2% of the supernatant were added to SDS-containing sample buffer (referred to as input). […] After a centrifugation step (2 min, 2500×g) the precleared supernatant was transferred to a new cup. 2% were added to SDS-containing sample buffer (referred to as non-bound). […] Samples were analyzed by SDS-PAGE followed by immunoblotting. Immunoblots were probed with indicated antibodies.

MEPDRKAAVSHWQQ = target: T2, MEPDRKAAVSHWQQ; assay: truncated peptides of β-catenin aa 14-27 on OVA-microspheres, biotinylated BC2-Nb, streptavidin-PE
T2 construct: full-length peptide of both truncation series; also called β-catenin aa 14-27
T2 peptide: MEPDRKAAVSHWQQ
Source text: (§1) As negative controls, microspheres comprising Ovalbumin and the Myc-peptide ([…]) covalently coupled to OVA-microspheres were used. […] Evaluation of the PE-signals were done in a Flexmap 3D (Luminex).

MEPDRKAAVSHWQ = target: T3, MEPDRKAAVSHWQ; assay: as above
T3 construct: C-terminal truncation; also called β-catenin aa 14-26
T3 peptide: MEPDRKAAVSHWQ
Source text: as §1

MEPDRKAAVSHW = target: T4, MEPDRKAAVSHW; assay: as above
T4 construct: C-terminal truncation; also called β-catenin aa 14-25
T4 peptide: MEPDRKAAVSHW
Source text: as §1

MEPDRKAAVSH = target: T5, MEPDRKAAVSH; assay: as above
T5 construct: C-terminal truncation; also called β-catenin aa 14-24
T5 peptide: MEPDRKAAVSH
Source text: as §1

MEPDRKAAVS = target: T6, MEPDRKAAVS; assay: as above
T6 construct: C-terminal truncation; also called β-catenin aa 14-23
T6 peptide: MEPDRKAAVS
Source text: as §1

EPDRKAAVSHWQQ = target: T7, EPDRKAAVSHWQQ; assay: as above
T7 construct: N-terminal truncation; also called β-catenin aa 15-27
T7 peptide: EPDRKAAVSHWQQ
Source text: as §1

DRKAAVSHWQQ = target: T8, DRKAAVSHWQQ; assay: as above
T8 construct: N-terminal truncation; also called β-catenin aa 17-27
T8 peptide: DRKAAVSHWQQ
Source text: as §1

RKAAVSHWQQ = target: T9, RKAAVSHWQQ; assay: as above
T9 construct: N-terminal truncation; also called β-catenin aa 18-27
T9 peptide: RKAAVSHWQQ
Source text: as §1

KAAVSHWQQ = target: T10, KAAVSHWQQ; assay: as above
T10 construct: N-terminal truncation; also called β-catenin aa 19-27
T10 peptide: KAAVSHWQQ
Source text: as §1

AAVSHWQQ = target: T11, AAVSHWQQ; assay: as above
T11 construct: N-terminal truncation; also called β-catenin aa 20-27
T11 peptide: AAVSHWQQ
Source text: as §1

BC2T K4E = target: T12, BC2T K4E (human); assay: library pulldown, LC-MS of supernatant; ratio vs GFP-Nb control (0=captured, 1=not captured)
T12 construct: position 4 library, row E
T12 peptide: Ac-PDREAAVSHWQQ-NH2
Summary of the method: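 Unbound peptide left in supernatant after 1 h pulldown in PBS/0.01% CHAPS measured by reversed-phase LC-MS (8–30% eluent B gradient, 20 min).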

T1 sequence (P08670 other isoform, or with tags, fused parts or gaps): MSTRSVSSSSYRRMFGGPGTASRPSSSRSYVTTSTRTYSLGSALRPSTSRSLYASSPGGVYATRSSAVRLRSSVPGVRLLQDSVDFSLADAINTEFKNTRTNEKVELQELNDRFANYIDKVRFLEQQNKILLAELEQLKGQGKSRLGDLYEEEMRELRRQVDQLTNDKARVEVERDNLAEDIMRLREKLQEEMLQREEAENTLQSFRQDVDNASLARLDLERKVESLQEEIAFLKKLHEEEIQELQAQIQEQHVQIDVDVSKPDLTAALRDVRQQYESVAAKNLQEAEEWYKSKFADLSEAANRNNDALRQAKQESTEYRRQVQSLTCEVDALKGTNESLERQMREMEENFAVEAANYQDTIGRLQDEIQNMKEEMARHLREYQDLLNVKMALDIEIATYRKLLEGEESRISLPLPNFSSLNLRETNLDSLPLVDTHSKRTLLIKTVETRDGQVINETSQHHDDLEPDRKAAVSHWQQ

Row | Binder | binding result [1] | binding result (MEPDRKAAVSHWQQ) | binding result (MEPDRKAAVSHWQ) | binding result (MEPDRKAAVSHW) | binding result (MEPDRKAAVSH) | binding result (MEPDRKAAVS) | binding result (EPDRKAAVSHWQQ) | binding result (DRKAAVSHWQQ) | binding result (RKAAVSHWQQ) | binding result (KAAVSHWQQ) | binding result (AAVSHWQQ) | ratio (BC2T K4E)
1 | B1 | binds | binds | binds | binds | no binding (tested: 1 µg/ml BC2-Nb) | no binding (tested: 1 µg/ml BC2-Nb) | binds | binds | binds | no binding (tested: 1 µg/ml BC2-Nb) | no binding (tested: 1 µg/ml BC2-Nb) | 
2 | B2 |  |  |  |  |  |  |  |  |  |  |  | 0.5
